Measurements: paper PMC10312502

Biological target: human 40S ribosomal subunit labelled with Cy3 on the N-terminus of uS19 (human) (UniProt P62841)
Experiment: FRET or BRET

Q: With “Bat-Hp-CoV Nsp1, fluorescently labelled (wild type) (natural protein)” as the substance, how does the fold inhibition of eIF1A association with the 40S subunit read?
A: > 2 fold

Q: What about the koff of the same substance?
A: < 0.01 s⁻¹

Q: And the persistence of the FRET signal?
A: > 100 s
